Assay results reported in patent US20040028607.

Experiments:
[1] = biological target: T1, 9-amino acid synthetic alpha-tubulin peptide MPSD(AcK)TIGG, acetylated on lysine-40
T1 chain: MPSDXTIGG

[2] = biological target: monoacetylated histone H3 peptide …(AcK)APRKQL, acetylated on lysine-14
[3] = biological target: PCAF-acetylated calf thymus core histones

B1: recombinant human SIRT2 (6xHis-tagged, with factor Xa cleavage site, purified from E. coli) (protein)
chain: MAEPDPSHPLETQAGKVQEAQDSDSDSEGGAAGGEADMDFLRNLFSQTLSLGSQKERLLDELTLEGVARYMQSERCRRVICLVGAGISTSAGIPDFRSPSTGLYDNLEKYHLPYPEAIFEISYFKKHPEPFFALAKELYPGQFKPTICHYFMRLLKDKGLLLRCYTQNIDTLERIAGLEQEDLVEAHGTFYTSHCVSASCRHEYPLSWMKEKIFSEVTPKCEDCQSLVKPDIVFFGESLPARFFSCMQSDFLKVDLLLVMGTSLQVQPFASLISKAPLSTPRLLINKEKAGQSDPFLGMIMGLGGGMDFDSKKAYRDVAWLGECDQGCLALAELLGWKKELEDLVRREHASIDAQSGAGVPNPSTSASPKKSPPPAKDEARTTEREKPQ
With B1 the “V/K, deacetylation of tubulin peptide, HPLC” value [1] was 894 ± 100 M⁻¹ s⁻¹, the “fold preference for tubulin peptide relative to Hst2p (kcat and V/K)” value [1] was “This difference was 60-fold” and the “kcat (printed 'kea'), deacetylation of tubulin peptide, HPLC” value [1] was 0.144 ± 0.005 s⁻¹. The “kcat (printed 'km values'), deacetylation of acetylated H3 peptide” value [2] was “The km values (˜0.2 s^-1) were similar between the two enzymes”.

B2: recombinant yeast Hst2p (protein)
chain: MSVSTASTEMSVRKIAAHMKSNPNAKVIFMVGAGISTSCGIPDFRSPGTGLYHNLARLKLPYPEAVFDVDFFQSDPLPFYTLAKELYPGNFRPSKFHYLLKLFQDKDVLKRVYTQNIDTLERQAGVKDDLIIEAHGSFAHCHCIGCGKVYPPQVFKSKLAEHPIKDFVKCDVCGELVKPAIVFFGEDLPDSFSETWLNDSEWLREKITTSGKHPQQPLVIVVGTSLAVYPFASLPEEIPRKVKRVLCNLETVGDFKANKRPTDLIVHQYSDEFAEQLVEELGWQEDFEKILTAQGGMGDNSKEQLLEIVHDLENLSLDQSEHESADKKDKKLQRLNGHDSDEDGASNSSSSQKAAKE
In the case of B2, the “V/K, deacetylation of tubulin peptide, HPLC” value [1] is reported as 14.9 M⁻¹ s⁻¹, the “kcat (printed 'kea'), deacetylation of tubulin peptide, HPLC” value [1] is reported as 0.00254 ± 0.0003 s⁻¹ and the “fold preference for H3 peptide relative to SIRT2 (V/K and Km)” value [2] is reported as “˜200-fold stronger preference for H3 peptide relative to SIRT2”. The “kcat (printed 'km values'), deacetylation of acetylated H3 peptide” value [2] was “The km values (˜0.2 s^-1) were similar between the two enzymes” and the “apparent V/K for deacetylation of core histones, fold over SIRT2” value [3] was “Hst2p exhibited a 7-fold higher V/K value than SIRT2”.
